Reference: patent US20200279616A1

T1: HLA-DRB1*01:01 (biochemical MHC-peptide affinity assay) (human)
T1 chain 1: not shown
T1 chain 2: not shown

T2: HLA-DRB1*11:01 (biochemical MHC-peptide affinity assay) (human)
T2 chain 1: not shown
T2 chain 2: not shown


Target: HLA monomer of the STII-TR-FRET peptide exchange assay (secreted HLA class II alpha/beta heterodimer; allele not stated)
Experiment: TR-FRET peptide exchange titration on 20nM DRB1*01:01 (STII-CLIP), 37C; displaced: m2

Molecule	IC50 (read off the curve)
CLIP (peptide)	70 nM

Target: T1, HLA-DRB1*01:01 (biochemical MHC-peptide …)
Experiment: biochemical MHC-peptide affinity assay

Molecule	Measured affinity
TWFNQPARKIR (modifications not checked)	8 nM
GHPDLQGQPAEEIFES (modifications not checked)	189 nM
DRYEMEDGKVIER (modifications not checked)	54 nM
DKKNIILEEGKEILVG (modifications not checked)	27 nM
SPHAFKTESGEETDL (modifications not checked)	333 nM
GVQRGLVGEIIKR (modifications not checked)	8 nM
MPSFVPSDGRQAAD (modifications not checked)	3 nM
GLRYKKLHDPKGWIT (modifications not checked)	30 nM

Target: T2, HLA-DRB1*11:01 (biochemical MHC-peptide …)
Experiment: biochemical MHC-peptide affinity assay

Molecule	Measured affinity
LNELKPISKGGHSS (modifications not checked)	67 nM
LAPTWEELSKKEFPG (modifications not checked)	174 nM
YEDKFRNNLKGKRLD (modifications not checked)	254 nM
TRNEVIPMSHPGAVD (modifications not checked)	36 nM
GMNIVEAMERFGSRNG (modifications not checked)	79 nM
ENPYFAPNPKIIRQ (modifications not checked)	128 nM
EPAEFIIDTRDAGYG (modifications not checked)	195 nM
DLEELEVLERKPAAG (modifications not checked)	63 nM
GQQWTYEQRKIVE (modifications not checked)	145 nM
GPFSFSVIDKPPG (modifications not checked)	209 nM
EGEYQGIPRAESGG (modifications not checked)	159 nM
IAGEWQVLHREGAIT (modifications not checked)	35 nM
DVNEYAPVFKEKSYK (modifications not checked)	223 nM

Target: T3, Thrombin digested soluble HLA-DRB1*15:01 (CLIP0 placeholder construct) (human)
Experiment: FP probe displacement; probe m27

Molecule	% inhibition of probe binding at 0.1uM	% inhibition of probe binding at 1uM	% inhibition of probe binding at 10uM
PQLRQWWAQGADPLA (modifications not checked) [M247]	42%	50%	58%
ASLRSWPSTWAPWAS (modifications not checked) [M371]	46%	58%	74%
PPIDGYPNHPCFEPE (modifications not checked) [M230]	49%	79%	82%
LLRPGQIVAFDSTAQ (modifications not checked) [M248]	1%	6%	61%
PQILPYPAPEEAQEN (modifications not checked) [M231]	21%	50%	66%

Target: T3, Thrombin digested soluble …
Experiment: differential scanning fluorometry after peptide exchange (Sypro orange)

Molecule	DTm (sample Tm - control Tm)	Average Tm
PQLRQWWAQGADPLA (modifications not checked) [M247]	20.1	
ASLRSWPSTWAPWAS (modifications not checked) [M371]	19.9	
PPIDGYPNHPCFEPE (modifications not checked) [M230]	21.4	
LLRPGQIVAFDSTAQ (modifications not checked) [M248]	5.6	
PQILPYPAPEEAQEN (modifications not checked) [M231]	15.6	73.9
